Test results reported in patent publication US20240043507A1.

Target: SARS-CoV-2 spike receptor binding domain (native RBD) (SARS-CoV-2) (UniProt P0DTC2)
Assay: not given

| Substance | Kd [nM] |
| --- | --- |
| AZD1061 (antibody) | 1.04 |
| AZD8895 (antibody) | 1.49 |
| REGN10933 (antibody) | 1.82 |
| REGN10987 (antibody) | 3.85 |

Target: SARS-CoV-2 receptor binding domain, native (501N) (SARS-CoV-2) (UniProt P0DTC2)
Assay: BLI, RBD immobilised on AR2G biosensor, 1:1 fit

| Substance | Kd [nM] |
| --- | --- |
| AZD1061 as tested by BLI (Fab by the footnote of Table 12) | 1.04 |
| AZD8895 as tested by BLI (Fab by the footnote of Table 12) | 1.49 |
| REGN10933 as tested by BLI (Fab by the footnote of Table 12) | 1.82 |
| REGN10987 as tested by BLI (Fab by the footnote of Table 12) | 3.85 |
